US20260125454A1 (SHANGHAI JUNSHI BIOSCIENCES, published 2026)

T1: Biotin-huCGRPaSA (human, not fully specified; biotin (position not given))
T1 construct: exact construct ('aSA') not explained; also called Biotin CGRPaSA; full-length (1-37) CGRP
T1 peptide: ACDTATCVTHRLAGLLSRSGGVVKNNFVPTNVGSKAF


Assays:
CGRP antigen = assay: cell-based or functional assay
Biotin-huCGRPaSA = target: T1, Biotin-huCGRPaSA; assay: ELISA, supernatant; relative to chimeric C245
Summary of the method: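 Antibodies, including reference chimeric C245, titrated 2.5-fold from 1000 ng/mL and incubated 60 min at 37°C on wells coated with 1.0 μg/mL biotin-CGRPaSA and blocked with 2% BSA. Bound IgG detected with HRP anti-human Fc antibody and TMB, acid-stopped, absorbance 450/620 nm.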

Binder | IC50 (CGRP antigen) | relative activity (%) vs C245 (CGRP antigen) | Relative binding activity, % (Biotin-huCGRPaSA)
hu235 (antibody, V domains shown, 3C1 HC-4/3C1 LC-2) VH: QVQLVQSGAEVKKPGASVKVSCKASGYTFTGYTMNWVRQAPGQGLEWMGLINPYIGNTHYNQKFKDRVTFTVDRSSSTAYMELSRLRSDDTAVYYCARELDSGFDYWGQGTLVTVSS VL: DVVMTQTPLSLSVTPGQPASISCRSSQNIVHSNGDTYLEWYLQKPGQSPQLLIYKVSNRFSGVPDRFSGSGSGTDFTLKISRVEAEDVGVYYCYQGSHVPWTFGQGTKLEIK | 0.0619 µg/mL | 45% | 74%
hu229 (antibody, V domains shown, 3C1 HC-2/3C1 LC-4) VH: QVQLVQSGAEVKKPGASVKVSCKASGYTFTGYTMNWVRQAPGQRLEWMGLINPYIGNTHYNQKFKDRVTFTVDRSSSTAYMELSSLRSEDTAVYYCARELDSGFDYWGQGTLVTVSS VL: DVVMTQSPDSLAVSLGERATINCRSSQNIVHSNADTYLEWYQQKPGQPPKLLIYKVSNRFSGVPDRFSGSGSGTDFTLTISSLQAEDVAVYYCYQGSHVPWTFGQGTKLEIK | 0.0851 µg/mL | 28% | 48%
hu232 (antibody, V domains shown, 3C1 HC-3/3C1 LC-3) VH: QVQLVQSGSELKKPGASVKVSCKASGYTFTGYTMNWVRQAPGQGLEWMGLINPYIGNTHYNQKFKDRFVFSVDRSSSTAYLQISSLKAEDTAVYYCARELDSGFDYWGQGTLVTVSS VL: DVVMTQSPDSLAVSLGERATINCRSSQNIVHSNGDTYLEWYQQKPGQPPKLLIYKVSNRFSGVPDRFSGSGSGTDFTLTISSLQAEDVAVYYCYQGSHVPWTFGQGTKLEIK | 0.044 µg/mL | 59% | 70%
hu228 (antibody, human IgG4 S228P, kappa, V domains shown) VH: QVQLVQSGAEVKKPGASVKVSCKASGYTFTGYTMNWVRQAPGQRLEWMGLINPYIGNTHYNQKFKDRVTFTVDRSSSTAYMELSSLRSEDTAVYYCARELDSGFDYWGQGTLVTVSS VL: DVVMTQSPDSLAVSLGERATINCRSSQNIVHSNGDTYLEWYQQKPGQPPKLLIYKVSNRFSGVPDRFSGSGSGTDFTLTISSLQAEDVAVYYCYQGSHVPWTFGQGTKLEIKR | 0.0267 µg/mL | 88% | 68%
hu225 (antibody, V domains shown, 3C1 HC-1/3C1 LC-4) VH: QVQLVQSGAEVKKPGASVKVSCKASGYSFTGYTMNWVRQAPGQRLEWMGLINPYIGNTHYNQKFKDRVTFTVDRSSSTAYMELSSLRSEDTAVYYCARELDSGFDYWGQGTLVTVSS VL: DVVMTQSPDSLAVSLGERATINCRSSQNIVHSNADTYLEWYQQKPGQPPKLLIYKVSNRFSGVPDRFSGSGSGTDFTLTISSLQAEDVAVYYCYQGSHVPWTFGQGTKLEIK | 0.185 µg/mL | 10% | 52%
hu236 (antibody, V domains shown, 3C1 HC-4/3C1 LC-3) VH: QVQLVQSGAEVKKPGASVKVSCKASGYTFTGYTMNWVRQAPGQGLEWMGLINPYIGNTHYNQKFKDRVTFTVDRSSSTAYMELSRLRSDDTAVYYCARELDSGFDYWGQGTLVTVSS VL: DVVMTQSPDSLAVSLGERATINCRSSQNIVHSNGDTYLEWYQQKPGQPPKLLIYKVSNRFSGVPDRFSGSGSGTDFTLTISSLQAEDVAVYYCYQGSHVPWTFGQGTKLEIK | 0.0514 µg/mL | 55% | 68%
hu233 (antibody, V domains shown, 3C1 HC-3/3C1 LC-4) VH: QVQLVQSGSELKKPGASVKVSCKASGYTFTGYTMNWVRQAPGQGLEWMGLINPYIGNTHYNQKFKDRFVFSVDRSSSTAYLQISSLKAEDTAVYYCARELDSGFDYWGQGTLVTVSS VL: DVVMTQSPDSLAVSLGERATINCRSSQNIVHSNADTYLEWYQQKPGQPPKLLIYKVSNRFSGVPDRFSGSGSGTDFTLTISSLQAEDVAVYYCYQGSHVPWTFGQGTKLEIK | 0.0877 µg/mL | 30% | 68%
